Ends that are not written are not given here.
How the values were obtained:
Assay type in all cases: biochemical
[1] = target: T1, recombinant Set9 (Homo sapiens, UniProt Q8WTS6); assay: In vitro methylation assay with recombinant Set9 (radiolabeled SAM autoradiography; MALDI-TOF with nonradioactive SAM); conditions: confirmed by MALDI-TOF
T1 construct: purchased Upstate
T1 sequence (Q8WTS6 whole entry, looked up): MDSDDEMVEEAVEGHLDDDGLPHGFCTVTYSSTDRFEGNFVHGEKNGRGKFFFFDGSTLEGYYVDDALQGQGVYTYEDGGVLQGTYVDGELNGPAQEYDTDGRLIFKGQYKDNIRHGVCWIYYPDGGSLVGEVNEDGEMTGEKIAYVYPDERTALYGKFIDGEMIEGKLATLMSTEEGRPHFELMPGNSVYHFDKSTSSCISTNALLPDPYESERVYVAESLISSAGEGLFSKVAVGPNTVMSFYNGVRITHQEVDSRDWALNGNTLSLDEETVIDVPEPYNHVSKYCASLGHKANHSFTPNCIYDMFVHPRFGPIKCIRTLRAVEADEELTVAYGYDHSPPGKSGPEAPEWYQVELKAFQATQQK
Method: (§1) Methylation assays were performed as described. (Nishioka et al. (2002) supra. In brief, 2 μg of calf thymus histones (Sigma), synthetic Tat protein or recombinant GST-IκBα were incubated with 0, 0.5, 1 or 2 μg of recombinant Set9 (specific activity 182 mU/mg, Upstate) or 0, 1 and 2 μg of G9a (specific activity 98 mU/mg, Upstate) in a buffer containing 50 mM TrisHCl pH 8.5, 5 mM MgCl2, 4 mM DTT and 1.1 μCi of ^3H-labeled S-adenosyl methionine (SAM) (Perkin Elmer) 30 min at 30° C. Reactions were stopped with sodium dodecyl sulfate (SDS) sample buffer and fractionated in a 15% SDS-polyacrylamide gel electrophoresis (SDS-PAGE) gel. After Coomassie staining and destaining, gels were treated with Amplify (Amersham Biosciences) for 30 min, dried and exposed to hyper-film (Kodak) overnight. The reactions performed with Tat peptides contained 100 μM of the different peptides and 1 μg of Set9 enzyme and were fractionated in a 10-20% Tris-Tricine gel (BioRad). For mass-spectrometry analysis, reactions were performed in the presence of 2 mM SAM (New England Biolabs) and analyzed in a MALDI-TOF instrument. In vitro acetylation assays were performed as described. Ott et al. (1999) supra.

[2] = target: T2, p300 (Homo sapiens, UniProt Q09472); assay: In vitro acetylation assay with recombinant p300 and 14C-AcCoA; conditions: recombinant p300, 14C-AcCoA, autoradiography
T2 construct: Recombinant GST-p300 HAT was expressed in the BL21 strain of Escherichia coli; GST (N); made in house; host or cells: Escherichia coli BL21
T2 sequence (Q09472 1287-1663 limits assumed): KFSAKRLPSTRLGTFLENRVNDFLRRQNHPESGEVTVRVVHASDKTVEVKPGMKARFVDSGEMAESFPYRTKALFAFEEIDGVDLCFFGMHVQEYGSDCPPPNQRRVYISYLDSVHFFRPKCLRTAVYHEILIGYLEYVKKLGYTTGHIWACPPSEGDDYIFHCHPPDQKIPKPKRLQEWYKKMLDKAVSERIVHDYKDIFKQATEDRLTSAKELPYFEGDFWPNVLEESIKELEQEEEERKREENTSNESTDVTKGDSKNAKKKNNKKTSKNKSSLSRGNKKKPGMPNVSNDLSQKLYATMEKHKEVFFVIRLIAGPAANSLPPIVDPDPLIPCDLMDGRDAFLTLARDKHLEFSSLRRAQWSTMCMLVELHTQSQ
Method: Recombinant GST-p300 HAT was expressed in the BL21 strain of Escherichia coli and purified on glutathione-Sepharose beads (Amersham Pharmacia Biotech) following manufacturer's protocol.
as §1

[3] = test system: G9a; assay: In vitro methylation assay with recombinant G9a; conditions: recombinant G9a 0, 1 and 2 μg, radiolabeled SAM
Method: as §1

Molecule	methylation by Set9 [1]	acetylation by p300 [2]	methylation by G9a [3]
K50Ac: ARM peptide carrying an acetyl group at position 50 (ISYGRK(Ac)KRRQRRRP; not fully specified)	No methylation		
K51me: ARM peptide monomethylated at K51 (ISYGRKK(Me)RRQRRRP)		acetylated	
Tat protein: full-length synthetic Tat protein (72 amino acids) (peptide, UniProt P04608 1-72, looked up, fragment) MEPVDPRLEPWKHPGSQPKTACTNCYCKKCCFHCQVCFITKALGISYGRKKRRQRRRAHQNSQTHQASLSKQ	methylated in response to increasing amounts of Set9 enzyme		did not result in methylation

From patent publication US8580492B2, “Screening method for the identification of inhibitors of HIV Tat methylation by the lysine methyltransferase Set7/9” (priority 2007, dated 2013)
